According to patent publication US20150322474A1 (UNIVERSITY OF THE UNIVERSITY OF ABERDEEN, published 2015):

T1: VGAGIGFPAYDG peptide substrate
T1 chain: VGAGIGFPAYDG

T2: VGAGIGFPAYRG peptide substrate (modified recognition sequence, Asp to Arg)
T2 chain: VGAGIGFPAYRG

T3: VPAPIPFPAYDG peptide (substrate mimic, P8-P4')
T3 peptide: VPAPIPFPAYDG


Experiments:
[1] = target: T1, VGAGIGFPAYDG peptide substrate
[2] = target: T2, VGAGIGFPAYRG peptide substrate …
[3] = target: T3, VPAPIPFPAYDG peptide (substrate mimic, …); assay: X-ray crystal structure of the complex, 2.63 Å (co-crystallised, then soaked in 7.5 mM peptide)

Binder	Cyclic ion count (%) (M + H = 699) [1]	Linear ion count (%) (M + H = 717) [1]	Unprocessed ion count (%) (M + H = 1123) [1]	linear product, LC-MS [2]	macrocyclization reaction, LC-MS [2]	binding result [3]
PatGmac K598D (protein) GEDEIESAGVSASEVESSATKQKVALHPHDLDERIPGLADLHNQTLGDPQITIVIIDGDPDYTLSCFEGAEVSKVFPYWHEPAEPITPEDYAAFQSIRDQGLKGKEDEEALEAVIPDTKDRIVLNDHACHVTSTIVGQEHSPVFGIAPNCRVINMPQDAVIRGNYDDVMSPLNLARAIDLALELGANIIHCAFCRPTQTSEGEEILVQAIKKCQDNNVLIVSPTGNNSNESWCLPAVLPGTLAVGAAKVDGTPCHFSNWGGNNTKEGILAPGEEILGAQPCTEEPVRLTGTSMAAPVMTGISALLMSLQVQQGKPVDAEAVRTALLKTAIPCDPEVVEEPERCLRGFVNIPGAMKVLFGQ	0	100	0	PatGmac K598D produced cyclo[VGAGIGFP] with only 8% linear product, at a rate over an order of magnitude faster than wild-type PatGmac with VGAGIGFPAYDG	–	–
PatGmac K594D (protein) GEDEIESAGVSASEVESSATKQKVALHPHDLDERIPGLADLHNQTLGDPQITIVIIDGDPDYTLSCFEGAEVSKVFPYWHEPAEPITPEDYAAFQSIRDQGLDGKEKEEALEAVIPDTKDRIVLNDHACHVTSTIVGQEHSPVFGIAPNCRVINMPQDAVIRGNYDDVMSPLNLARAIDLALELGANIIHCAFCRPTQTSEGEEILVQAIKKCQDNNVLIVSPTGNNSNESWCLPAVLPGTLAVGAAKVDGTPCHFSNWGGNNTKEGILAPGEEILGAQPCTEEPVRLTGTSMAAPVMTGISALLMSLQVQQGKPVDAEAVRTALLKTAIPCDPEVVEEPERCLRGFVNIPGAMKVLFGQ	29	71	0	–	reacted extremely slowly with the substrate giving equal amounts of macrocyclized and linear products	–
PatGmacH618A (inactive mutant of the PatG macrocyclase domain) (enzyme) GEDEIESAGVSASEVESSATKQKVALHPHDLDERIPGLADLHNQTLGDPQITIVIIDGDPDYTLSCFEGAEVSKVFPYWHEPAEPITPEDYAAFQSIRDQGLKGKEKEEALEAVIPDTKDRIVLNDAACHVTSTIVGQEHSPVFGIAPNCRVINMPQDAVIRGNYDDVMSPLNLARAIDLALELGANIIHCAFCRPTQTSEGEEILVQAIKKCQDNNVLIVSPTGNNSNESWCLPAVLPGTLAVGAAKVDGTPCHFSNWGGNNTKEGILAPGEEILGAQPCTEEPVRLTGTSMAAPVMTGISALLMSLQVQQGKPVDAEAVRTALLKTAIPCDPEVVEEPERCLRGFVNIPGAMKVLFGQ	–	–	–	–	–	binds
PatGmac wild-type (macrocyclase domain of PatG, residues 492-851) (protein) GEDEIESAGVSASEVESSATKQKVALHPHDLDERIPGLADLHNQTLGDPQITIVIIDGDPDYTLSCFEGAEVSKVFPYWHEPAEPITPEDYAAFQSIRDQGLKGKEKEEALEAVIPDTKDRIVLNDHACHVTSTIVGQEHSPVFGIAPNCRVINMPQDAVIRGNYDDVMSPLNLARAIDLALELGANIIHCAFCRPTQTSEGEEILVQAIKKCQDNNVLIVSPTGNNSNESWCLPAVLPGTLAVGAAKVDGTPCHFSNWGGNNTKEGILAPGEEILGAQPCTEEPVRLTGTSMAAPVMTGISALLMSLQVQQGKPVDAEAVRTALLKTAIPCDPEVVEEPERCLRGFVNIPGAMKVLFGQ	100	0	0	–	reacted extremely slowly with the substrate giving equal amounts of macrocyclized and linear products	–
PatGmac triple mutant R589D K594D K598D (protein) GEDEIESAGVSASEVESSATKQKVALHPHDLDERIPGLADLHNQTLGDPQITIVIIDGDPDYTLSCFEGAEVSKVFPYWHEPAEPITPEDYAAFQSIDDQGLDGKEDEEALEAVIPDTKDRIVLNDHACHVTSTIVGQEHSPVFGIAPNCRVINMPQDAVIRGNYDDVMSPLNLARAIDLALELGANIIHCAFCRPTQTSEGEEILVQAIKKCQDNNVLIVSPTGNNSNESWCLPAVLPGTLAVGAAKVDGTPCHFSNWGGNNTKEGILAPGEEILGAQPCTEEPVRLTGTSMAAPVMTGISALLMSLQVQQGKPVDAEAVRTALLKTAIPCDPEVVEEPERCLRGFVNIPGAMKVLFGQ	0	6	94	–	reacted extremely slowly with the substrate giving equal amounts of macrocyclized and linear products	–
PatGmacΔ1 (deletion of residues 578-608, the helix-loop-helix insertion motif) (protein) GEDEIESAGVSASEVESSATKQKVALHPHDLDERIPGLADLHNQTLGDPQITIVIIDGDPDYTLSCFEGAEVSKVFPYWHEPAEPITKDRIVLNDHACHVTSTIVGQEHSPVFGIAPNCRVINMPQDAVIRGNYDDVMSPLNLARAIDLALELGANIIHCAFCRPTQTSEGEEILVQAIKKCQDNNVLIVSPTGNNSNESWCLPAVLPGTLAVGAAKVDGTPCHFSNWGGNNTKEGILAPGEEILGAQPCTEEPVRLTGTSMAAPVMTGISALLMSLQVQQGKPVDAEAVRTALLKTAIPCDPEVVEEPERCLRGFVNIPGAMKVLFGQ	0	92	8	–	–	–
PatGmacΔ2 (deletion of residues 578-614, the helix-loop-helix insertion and the N-terminal extension of α4) (protein) GEDEIESAGVSASEVESSATKQKVALHPHDLDERIPGLADLHNQTLGDPQITIVIIDGDPDYTLSCFEGAEVSKVFPYWHEPAEPILNDHACHVTSTIVGQEHSPVFGIAPNCRVINMPQDAVIRGNYDDVMSPLNLARAIDLALELGANIIHCAFCRPTQTSEGEEILVQAIKKCQDNNVLIVSPTGNNSNESWCLPAVLPGTLAVGAAKVDGTPCHFSNWGGNNTKEGILAPGEEILGAQPCTEEPVRLTGTSMAAPVMTGISALLMSLQVQQGKPVDAEAVRTALLKTAIPCDPEVVEEPERCLRGFVNIPGAMKVLFGQ	0	> 99	< 1	–	–	–
